Measured values reported in patent publication US20240318215A1.

Assays:
[1] = target: pMag fused to C-terminal part of split T7 RNA polymerase, as carried on the pT7-Opto plasmid; assay: cell-based or functional assay
[2] = target: pMag (F1) fused to second half of 563 T7RNAP non-star variant; assay: cell-based or functional assay
Sequence of pMag (F1) fused to second half of 563 T7RNAP non-star variant (chain, as listed by the source mutant limits assumed): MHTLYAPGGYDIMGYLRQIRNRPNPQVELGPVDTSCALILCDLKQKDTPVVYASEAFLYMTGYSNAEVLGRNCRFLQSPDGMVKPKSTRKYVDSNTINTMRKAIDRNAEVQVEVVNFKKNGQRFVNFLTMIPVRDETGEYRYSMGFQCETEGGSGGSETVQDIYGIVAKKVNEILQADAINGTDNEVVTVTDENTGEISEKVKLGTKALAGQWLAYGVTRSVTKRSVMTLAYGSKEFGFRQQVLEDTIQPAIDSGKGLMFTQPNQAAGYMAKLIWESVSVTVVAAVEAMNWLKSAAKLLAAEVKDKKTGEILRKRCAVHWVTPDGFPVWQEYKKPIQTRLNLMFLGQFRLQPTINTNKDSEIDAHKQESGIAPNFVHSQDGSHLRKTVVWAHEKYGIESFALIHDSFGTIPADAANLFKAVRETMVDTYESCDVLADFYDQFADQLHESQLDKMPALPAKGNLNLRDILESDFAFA

Sequence of pMag fused to C-terminal part of split T7 RNA polymerase, as carried on the pT7-Opto plasmid (chain, as listed by the source limits assumed): as the sequence (chain, as listed by the source mutant limits assumed) above, with R225S counted along it

B1: N-terminal part of split T7 RNA polymerase (563 split) fused to nMag (protein)
chain: MNTINIAKNDFSDIELAAIPFNTLADHYGERLAREQLALEHESYEMGEARFRKMFERQLKAGEVADNAAAKPLITTLLPKMIARINDWFEEVKAKRGKRPTAFQFLQEIKPEAVAYITIKTTLACLTSADNTTVQAVASAIGRAIEDEARFGRIRDLEAKHFKKNVEEQLNKRVGHVYKKAFMQVVEADMLSKGLLGGEAWSSWHKEDSIHVGVRCIEMLIESTGMVSLHRQNAGVVGQDSETIELAPEYAEAIATRAGALAGISPMFQPCVVPPKPWTGITGGGYWANGRRPLALVRTHSKKALMRYEDVYMPEVYKAINIAQNTAWKINKKVLAVANVITKWKHCPVEDIPAIEREELPMKPEDIDMNPEALTAWKRAAAAVYRKDKARKSRRISLEFMLEQANKFANHKAIWFPYNMDWRGRVYAVSMFNPQGNDMTKGLLTLAKGKPIGKEGYYWLKIHGANCAGVDKVPFPERIKFIEENHENIMACAKSPLENTWWAEQDSPFCFLAFCFEYAGVQHHGLSYNCSLPLAFDGSCSGIQHFSAMLRDEVGGRAVNLLPGGSGGHTLYAPGGYDIMGYLDQIGNRPNPQVELGPVDTSCALILCDLKQKDTPIVYASEAFLYMTGYSNAEVLGRNCRFLQSPDGMVKPKSTRKYVDSNTINTIRKAIDRNAEVQVEVVNFKKNGQRFVNFLTIIPVRDETGEYRYSMGFQCETE
- average pixel intensity (16-bit fluorescence scan) of the blue-light-exposed region of the pT7-Opto pellicle (pixel intensity (16-bit)) [1]: 10400
- average pixel intensity (16-bit fluorescence scan) of the unexposed region of the pT7-Opto pellicle (pixel intensity (16-bit)) [1]: 5520
- average red fluorescence of the light-exposed against the unexposed area of a K. rhaeticus pT7-Opto pellicle, fluorescence scan, 0.1% arabinose [1]: 1.8 fold
- change in mCherry blue light response from dark to bright, flow cytometry, 96-well plate, 0.1% (w/v) arabinose [1]: 2.57 fold
- change in mCherry blue light response from dark to bright, flow cytometry, 96-well plate, no arabinose [1]: 2.57 fold
- fold change of mCherry between dark and light states, flow cytometry, 96-well plate, 1% (w/v) arabinose [1]: 1.33 fold
- fold change of mCherry between dark and light states, flow cytometry, 96-well plate, 10% (w/v) arabinose [1]: 1.04 fold
- mCherry expression, blue light against dark culture, flow cytometry, K. rhaeticus pT7-Opto, 0.1% arabinose [1]: 7.5 fold
- increase of Tyr1 production (initial rate of melanin production, OD405) in blue light, strain Opto-T7RNAP(563-F1) with pT7 tyr1, 1 mg/mL arabinose [2]: 5.35 fold
- increase of mCherry production in response to blue light, plate reader, strain Opto-T7RNAP(563-F1) with pT7 mCherry, 10 mg/mL arabinose [2]: 7.4 fold
